Tests used:
Conditions in all cases: protein: recombinant; single strand
[1] = molecular target: T1, YB-1 cold shock domain (CSD) (human, UniProt P67809 51-129); test: EMSA; apparent Kd, protein concentration at 50% saturation; 7 pmol DNA in 10 ul; 10 mM Hepes-KOH pH 7.6, 100 mM KCl, 30 C, 15 min, 10 ul; 8% native PAGE in TBE, silver staining
YB-1 (full-length) [2] = molecular target: T2, YB-1 (full-length) (human, UniProt P67809 1-324); test: as above
[3] = molecular target: T1, YB-1 cold shock domain (CSD); test: EMSA; apparent Kd, protein concentration at 50% saturation; 7 pmol RNA in 10 ul; 10 mM Hepes-KOH pH 7.6, 100 mM KCl, 30 C, 15 min, 10 ul; 8% native PAGE in TBE, silver staining
YB-1 (full-length) [4] = molecular target: T2, YB-1 (full-length); test: as above

T2 sequence (P67809 whole entry, the tested form may be a part): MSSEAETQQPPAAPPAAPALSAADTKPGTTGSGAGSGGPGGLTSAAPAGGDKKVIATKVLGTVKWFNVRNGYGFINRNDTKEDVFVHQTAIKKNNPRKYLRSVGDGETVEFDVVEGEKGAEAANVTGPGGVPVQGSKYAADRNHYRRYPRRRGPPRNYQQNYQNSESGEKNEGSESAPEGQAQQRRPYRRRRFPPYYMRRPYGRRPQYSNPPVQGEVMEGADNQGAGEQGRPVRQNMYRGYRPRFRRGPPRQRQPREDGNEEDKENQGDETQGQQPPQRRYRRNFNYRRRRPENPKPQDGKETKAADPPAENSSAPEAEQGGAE
T1 sequence (P67809 51-129): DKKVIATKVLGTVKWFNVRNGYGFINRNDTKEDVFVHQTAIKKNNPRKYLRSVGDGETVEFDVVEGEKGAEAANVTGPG

## AGGATGGGTGAGTGAGGTAG (ssDNA) [G-rich DNA 20-mer]
[1]
  Kd: 6000 nM
YB-1 (full-length) [2]
  Kd: 600 nM

## AGGAUGGGUGAGUGAGGUAG (ssRNA) [G-rich RNA 20-mer]
[3]
  Kd: 2500 nM
YB-1 (full-length) [4]
  Kd: 300 nM

— PMC4493011, “The Cold Shock Domain of YB-1 Segregates RNA from DNA by Non-Bonded Interactions”
